According to publication PMC5656893, “Regioselective para‐Carboxylation of Catechols with a Prenylated Flavin Dependent Decarboxylase” (Angewandte Chemie (International Ed. in English), 2017):

Assays:
[1] = substrate: O=C(O)c1ccc(O)c(O)c1; test: decarboxylation kinetics, purified enzyme reconstituted in vitro with prFMN; type: biochemical, Enterobacter cloacae; conditions: apparent; prFMN iminium cofactor, after oxidative maturation
[2] = substrate: O=C(O)c1ccc(O)c(O)c1; test: as above; type: biochemical, Klebsiella pneumoniae; conditions: apparent; prFMN iminium cofactor, after oxidative maturation

Protein	Km [1] [µM]	kcat [1]	Km [2] [µM]	kcat [2]
EcAroY (Enterobacter cloacae) (protein, recombinant, purified from E. coli (UbiX co-expressed), reconstituted in vitro with prFMN and oxidised; UbiD family; homohexamer; about 495 residues) MQNPINDLRSAIALLQRHPGHYIETDHPVDPNAELAGVYRHIGAGGTVKRPTRTGPAMMFNSVKGYPGSRILVGMHASRERAALLLGCVPSKLAQHVGQAVKNPVAPVVVPASQAPCQEQVFYADDPDFDLRKLLPAPTNTPIDAGPFFCLGLVLASDPEDTSLTDVTIHRLCVQERDELSMFLAAGRHIEVFRKKAEAAGKPLPVTINMGLDPAIYIGACFEAPTTPFGYNELGVAGALRQQPVELVQGVAVKEKAIARAEIIIEGELLPGVRVREDQHTNTGHAMPEFPGYCGEANPSLPVIKVKAVTMRNHAILQTLVGPGEEHTTLAGLPTEASIRNAVEEAIPGFLQNVYAHTAGGGKFLGILQVKKRQPSDEGRQGQAALIALATYSELKNIILVDEDVDIFDSDDILWAMTTRMQGDVSITTLPGIRGHQLDPSQSPDYSTSIRGNGISCKTIFDCTVPWALKARFERAPFMEVDPTPWAPELFSDKK	61 ± 17	4.6±0.4 s^-1 (printed as v max ^app)	–	–
KpAroY (Klebsiella pneumoniae subsp. pneumoniae MGH 78578) (protein, recombinant, purified from E. coli (UbiX co-expressed), reconstituted in vitro with prFMN and oxidised; UbiD family; about 495 residues) MTAPIQDLRDAIALLQQHDNQYLETDHPVDPNAELAGVYRHIGAGGTVKRPTRIGPAMMFNNIKGYPHSRILVGMHASRQRAALLLGCEASQLALEVGKAVKKPVAPVVVPASSAPCQEQIFLADDPDFDLRTLLPAPTNTPIDAGPFFCLGLALASDPDDASLTDVTIHRLCVQGRDELSMFLAAGRHIEVFRQKAEAAGKPLPITINMGLDPAIYIGACFEAPTTPFGYNELGVAGALRQRPVELVQGVSVPEKAIARAEIVIEGELLPGVRVREDQHTNSGHAMPEFPGYCGGANPSLPVIKVKAVTMRNNAILQTLVGPGEEHTTLAGLPTEASIWNAVEAAIPGFLQNVYAHTAGGGKFLGILQVKKRQPADEGRQGQAALLALATYSELKNIILVDEDVDIFDSDDILWAMTTRMQGDVSITTIPGIRGHQLDPSQTPEYSPSIRGNGISCKTIFDCTVPWALKSHFERAPFADVDPRPFAPEYFARLEKNQGSAK	–	–	96 ± 23	4.7±0.4 s^-1 (printed as v max ^app)
